# According to PMC12593362, “Mapping the Role of Monomer Conformation in the Amyloid Formation of α‑Synuclein Splice Variants” (Journal of the American Chemical Society, 2025):
# B1: α-synuclein splice variant lacking the residues encoded by exons 3 and 5 (αSynΔ3Δ5) (natural protein)
# chain: not shown
# notes: made from the αSynΔ3 construct with the exon 5 deletion primers; natural splice isoform; No tag is named; Used as soluble monomer and as sonicated fibril seeds; source: E. coli BL21 DE3, purified (boiling, ammonium sulfate precipitation, anion exchange, SEC)
# Target: the molecule itself
# Test: thioflavin T fluorescence + pelleting assay + negative stain TEM; de novo self-assembly into amyloid fibrils; 100 μM monomer in 20 mM sodium phosphate pH 7.4 with 0 mM NaCl, 37 °C, shaking with a Teflon polyball
protein,measurement,value
B1,binding result,binds
